Data as given in patent publication US20240226314A1 (Sanofi, published 2024).
Like-named read-outs stand apart in the source and are kept apart here.

Columns and labels:
[1] = molecular target: His-tagged mouse TfR ectodomain (mTFRC_89_764; mature protein) (mouse, UniProt Q62351 89-763); assay: SPR, His-tagged mTfR ectodomain captured on anti-His
Method: (§1) Experiments were run on Bruker MASS-2 instrument with HBS-EP+ as running buffer and sample diluent (Cytiva Life Sciences, #BR100826). HCA sensorchips (Bruker, #1862614) were immobilized with anti his antibody (His capture kit, Cytiva Life Sciences, #28995056) following provider's instructions. About 10 000 RU of anti his was obtained. […] Surface was regenerated with one 1 min pulse of 10 mM Glycine-HCl pH1.5.

[2] = molecular target: T1, His-tagged cynomolgus monkey TfR ectodomain (cyTFRC_89_760; mature protein) (cynomolgus monkey (Macaca fascicularis), UniProt Q5RDH6 89-760 (Pongo abelii entry)); assay: SPR; KD on cTfR against KD on hTfR
T1 construct: also called cTfR; cTfR ectodomain
T1 chain: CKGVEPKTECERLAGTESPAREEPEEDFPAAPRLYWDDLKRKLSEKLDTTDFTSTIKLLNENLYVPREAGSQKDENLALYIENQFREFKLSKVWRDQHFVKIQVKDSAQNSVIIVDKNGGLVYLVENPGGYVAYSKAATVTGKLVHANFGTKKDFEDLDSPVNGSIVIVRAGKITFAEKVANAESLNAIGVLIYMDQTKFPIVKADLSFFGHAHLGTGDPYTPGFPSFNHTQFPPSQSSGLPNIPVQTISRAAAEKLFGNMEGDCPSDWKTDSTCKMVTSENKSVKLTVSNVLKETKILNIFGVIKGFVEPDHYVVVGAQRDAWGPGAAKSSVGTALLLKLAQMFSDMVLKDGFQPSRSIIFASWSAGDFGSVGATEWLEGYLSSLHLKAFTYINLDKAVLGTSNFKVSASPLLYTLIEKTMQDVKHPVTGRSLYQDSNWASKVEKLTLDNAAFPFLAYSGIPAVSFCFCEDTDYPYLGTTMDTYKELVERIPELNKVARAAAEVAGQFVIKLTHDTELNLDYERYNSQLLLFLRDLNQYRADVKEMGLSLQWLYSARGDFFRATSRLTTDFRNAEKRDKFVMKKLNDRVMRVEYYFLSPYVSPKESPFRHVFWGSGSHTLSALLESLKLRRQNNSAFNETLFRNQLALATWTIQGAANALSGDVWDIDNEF
Method: as §1

[3] = molecular target: T2, His-tagged human TfR ectodomain (hTFRC_89-760_G142S; mature protein) (human, UniProt P02786 89-760); assay: SPR, His-tagged TfR ectodomain captured on anti-His, 1:1 fit
T2 construct: It carries the G142S haplotype; also called hTfR ectodomain
Method: as §1

[4] = molecular target: T1, His-tagged cynomolgus monkey TfR …; assay: as above
Method: as §1

[5] = molecular target: T2, His-tagged human TfR ectodomain …; assay: as above; remark: listed apart in the source
Method: (§2) Binding of the humanized Fab variants to human, cynomolgus and mouse TfR was assessed using SPR at pH 7.4. Experiments were run on a Bruker MASS-2 instrument with HBS-EP+ as running buffer and sample diluent (Cytiva Life Sciences, #BR100826). HCA sensor chips (Bruker, #1862614) were immobilized with anti-His antibody (His capture kit, Cytiva Life Sciences, #28995056) following manufacturer's instructions. About 10,000 RU of anti-His was obtained. His-tagged hTfR ectodomain (SEQ ID NO: 39), cTfR ectodomain (SEQ ID NO: 40) or mouse TfR ectodomain (SEQ ID NO: 41) (5 μg/ml) was captured for 1 min at 10 μL/min. Concentration series of the humanized Fab variants were then injected for 4 min at 30 μL/min over hTfR surfaces and dissociation was monitored for 5 min. Surface was regenerated with one 1 min pulse of 10 mM glycine-HCl at pH 1.5.

[6] = molecular target: T1, His-tagged cynomolgus monkey TfR …; assay: as above
Method: as §2

[7] = molecular target: T1, His-tagged cynomolgus monkey TfR …; assay: SPR; KD on cTfR against KD on hTfR
Method: as §2

His-tagged mouse TfR ectodomain (mTFRC_89_764; mature protein), sequence (Q62351 other isoform, or with tags, fused parts or gaps): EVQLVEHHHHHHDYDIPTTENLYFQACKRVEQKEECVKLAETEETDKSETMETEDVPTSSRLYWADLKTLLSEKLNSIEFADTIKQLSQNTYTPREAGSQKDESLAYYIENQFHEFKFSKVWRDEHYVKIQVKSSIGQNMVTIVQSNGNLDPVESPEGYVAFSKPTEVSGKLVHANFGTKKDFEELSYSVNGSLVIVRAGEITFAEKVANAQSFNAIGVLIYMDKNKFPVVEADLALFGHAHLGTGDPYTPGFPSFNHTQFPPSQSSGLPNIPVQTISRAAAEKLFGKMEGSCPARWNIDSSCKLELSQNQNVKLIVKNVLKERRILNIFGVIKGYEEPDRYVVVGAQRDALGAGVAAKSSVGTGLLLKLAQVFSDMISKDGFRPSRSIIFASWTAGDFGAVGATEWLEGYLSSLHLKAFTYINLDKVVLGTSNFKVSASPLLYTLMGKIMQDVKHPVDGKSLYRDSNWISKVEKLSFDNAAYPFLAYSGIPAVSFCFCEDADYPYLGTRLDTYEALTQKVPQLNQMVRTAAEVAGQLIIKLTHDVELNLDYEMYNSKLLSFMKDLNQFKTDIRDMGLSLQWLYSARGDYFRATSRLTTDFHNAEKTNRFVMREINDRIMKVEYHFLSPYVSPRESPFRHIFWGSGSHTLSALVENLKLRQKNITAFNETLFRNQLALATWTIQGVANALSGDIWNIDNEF

B1: 531-1L2_mouse mAb (antibody, IgG1, V domains shown)
VH: QVQLQQPGAELVSPGASVKLSCKASDYTFTRYWLNWVKQRPGQGLEWIGMIDPSVSECHYSQMFKDKATLTVDKSSSTAYMLLNSLTSEDSAVYYCSQIRLPYYYAMDSWGQGTSVTVSS
VL: DIQMTQTPSSLSASLGDRVTISCRASQDINSFLNWYQQKPDGTVKLLIYYTSRLHSGVPSRFSGSGSGTDYSLTIGNLDQEDIATYFCQQGNTLPRTFGGGTKLELK
notes: constant regions are not
With B1 the binding result [1] was “no binding”, the “Cynomolgus/human KD ratio” value [2] was 3.9 and the Kd [3] was 6.9 nM. It also gave a Kd [4] of 27 nM, a Kd [5] of 6.93 nM and a Kd [6] of 27 nM. The “Cynomolgus/human KD ratio” value [7] was 3.9.
